Numbering of substitutions follows the chain as printed.
B1: clone GX119 (scFv, V domains shown)
VH: EVQLVESGGGVVQPGRSLRLSCAASGFTFSSYGMHWVRQAPGKGLEWVAVIWYDGSNKYYADSVKGRFTISRDNSKNTLYLQMNSLRAEDTAVYYCARDRSWNYYGMDVWGQGTTVTVSS
VL: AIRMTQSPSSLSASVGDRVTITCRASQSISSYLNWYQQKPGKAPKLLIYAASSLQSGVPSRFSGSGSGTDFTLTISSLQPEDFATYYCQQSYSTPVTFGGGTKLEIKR
notes: scFv library clone tested as culture supernatant
B2: clone GX090 (scFv, V domains shown)
VH: QVQLVQSGAEVKKPGASVKVSCKASGYTFTSYGISWVRQAPGQGLEWMGWISAYNGNTNYAQKLQGRVTMTTDTSTSTAYMELRSLRSDDTAVYYCARGSSFSGFDPWGQGTLVTVSS
VL: QSVLTQPPSLSAAPGQKVTISCSGSSSNIGKNHVSWYQQFPGTAPKFLIYDNHRRPSGIPDRFSGSKSGTSATLDITGLQTGDEATYYCGTWDSSLSAVVFGGGTKLTVLG
notes: as for B1
B3: clone GX099 (scFv, V domains shown)
VH: EVQLVESGAEVKKPGASVKVSCKASGYTFTSYYMHWVRQAPGQGLEWMGIINPSGGSTSYAQKFQGRVTMTRDTSTSTVYMELSSLRSEDTAVYYCARYSSSPAKIDYWGQGTLVTVSS
VL: QSVLTQPPSVSAAPGEKVIISCSGSSSNIGKYYVSWYQQLPGTAPKLLIYDNNKRPSGIPDRFSGSKSGTSATLGISGLQTGDEADYYCGTWDSSLNLVFGTGTKVTVLG
notes: as for B1
B4: clone GX234 (scFv, V domains shown)
VH: QVQLVQSGAEVKKPGASVKVSCKASGYTFTSYGISWVRQAPGQGLEWMGWISAYNGNTNYAQKLQGRVTMTTDTSTSTAYMELRSLRSDDTAVYYCARVGLGDFWSGDYYYYYYGMDVWGQGTTVTVSS
VL: SSELTQDPAVSVALGQTVRITCQGDSLRSSYASWYHQKPGQAPVLVMYGKNNRPSGIPDRFSGSSSGNTASLTITGAQAEDEADYYCHSRDSTGSHPNWVFGGGTKLTVLG
notes: as for B1
B5: clone GX206 (scFv, V domains shown)
VH: QLQLQESGPGLVKPSETLSLTCTVSGGSISSSSYYWGWIRQPPGKGLEWIGSIYYSGSTYYNPSLKSRVTISVDTSKNQFSLKLSSVTAADTAVYYCARLGDYGGNGYYFDYWGQGTLVTVSS
VL: QSVLTQPPSVSAASGQKVTVSCSGSSSNIGKNGVSWHQQLPGTAPKLLIYENNRRPSEIPDRFSGSKSGTSATLAITGLQTGDEADYYCGTWDSSLNAGVFGTGTKVTVLG
notes: as for B1
B6: clone GS011 (scFv, V domains shown)
VH: EVQLLESGGGLVQPGGSLRLSCAASGFTFSNYAMSWVRQAPGKGLEWVSGISPGGSSIYYADSVKGRFTISRDNSKNTLYLQMNSLRAEDTAVYYCARYAVYFLRSHGSYDYGMDVWGQGTLVTVSS
VL: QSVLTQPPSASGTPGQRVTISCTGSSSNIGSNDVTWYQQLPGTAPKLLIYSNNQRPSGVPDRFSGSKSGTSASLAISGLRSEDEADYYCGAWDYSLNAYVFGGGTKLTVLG
notes: as for B1
B7: clone GX253 (scFv, V domains shown)
VH: EVQLVESGGGLVKPGGSLRLSCAASGFTFSDYYMSWIRQAPGKGLEWVSYISSSGTTIYYADSVKGRFTISRDNAKKSLYLQMNSLRAEDTAVYYCARVRDSSGFWGRGTLVTVSS
VL: QSVLTQPPSVSAAPGQKVTISCSGSSSNIGNNYVSWYQQLPGTAPKLLIYDNNKRPSGIPDRFSGSKSGTSATLGITGLQTGDEADYYCGTWDSSLSAWVVGGGTKLTVLG
notes: as for B1
B8: clone GX118 (scFv, V domains shown)
VH: QLQLQESGPGLVKPSETLSLTCTVSGGSISSSSYYWGWIRQPPGKGLEWIGSIYYSGSTYYNPSLKSRVTISVDTSKNQFSLKLSSVTAADTAVYYCARLRSFADNYVWGSYASYYFDYWGRGTLVTVSS
VL: B7 VL with L4V, K17R, Y33F, Y37H, S94N, S97G, A98T, W99G, V101F
notes: as for B1
B9: clone GX248 (scFv, V domains shown)
VH: QMQLVQSGAEVKKPGASVKVSCKASGGTFSSYAISWVRQAPGQGLEWMGGIIPIFGTANYAQKFQGRVTITADESTSTAYMELSSLRSEDTAVYYCARVRGTGPRGGTFDYWGQGTLVTVSS
VL: B7 VL with V101F
notes: as for B1
B10: clone GX225 (scFv, V domains shown)
VH: QVQLVQSGAEVKKPGASVKVSCKASGYTFTSYYMHWVRQAPGQGLEWMGIINPSGGSTSYAQKFQGRVTMTRDTSTSTVYMELSSLRSEDTAVYYCARESGPSGGMDVWGQGTTVTVSS
VL: SYELTQPPSVSVSPGQTARITCSGDALPKQYAYWYQQKPGQAPVLVIYKDSERPSGIPERFSGSSSGTTVTLTISGVQAEDEADYYCSSYTSSSTRVVFGGGTKLTVLG
notes: as for B1
B11: clone GS009 (scFv, V domains shown)
VH: EVQLLESGGGLVQPGGSLRLSCAASGFTFSNYSMSWVRLAPGKGLEWVSVISPSGGNTYYADSVKGRFTISRDNSKNTLYLQMNSLRAEHTAVYYCARYRVKQMLNQRSYSNAMDVWGQGTLVTVSS
VL: QSVLTQPPSASGTPGQRVTISCTGSSSNIGNNYVSWYQQLPGTAPKLLIYDDSQRPSGVPDRFSGSKSGTSASLAISGLRSEDEADYYCGSWDASLSGYVFGGGTKLTVLG
notes: as for B1
B12: clone GS005 (scFv, V domains shown)
VH: EVQLLESGGGLVQPGGSLRLSCAASGFTFSNYAMSWVRQAPGKGLEWVSVISPDSSSKYYADSVKGRFTISRDNSKNTLYLQMNSLRAEDTAVYYCARAAVRRYGPSPYYYYAMDVWGQGTLVTVSS
VL: B11 VL with S35T, D51A, Q54H, G90A, S91T, A94Y
notes: as for B1
B13: clone GS008 (scFv, V domains shown)
VH: EVQLLESGGGLVQPGGSLRLSCAASGFTFSNYAMSWVRQAPGKGLEWVSVISPDNGSTYYADSVKGRFTISRDNSKNTLYLQMNSLRAEDTAVYYCARARVHCRRDQCYSYGMDVWGQGTLVTVSS
VL: B11 VL with N31S, Y33N, S35T, D51A, D52N, S91A, A94S, S97N
notes: as for B1
B14: clone GS001 (scFv, V domains shown)
VH: EVQLLESGGGLVQPGGSLRLSCAASGFTFSSYSMSWVRQAPGKGLEWVSGISPSGGNKYYADSVKGRFTISRDNSKNTLYLQMNSLRAEDTAVYYCARALLGCKSAYCYYAMDVWGQGTLVTVSS
VL: B11 VL with N31S, Y33A, S35N, D51A, Q54K, A94S
notes: as for B1
B15: clone GS007 (scFv, V domains shown)
VH: EVQLLESGGGLVQPGGSLRLSCAASGFTFSNYSMSWVRQAPGKGLEWVSVISHDGRSKYYADSVKGRFAISRDNSKNTLYLQMNSLRAEDTAVYYCAKFRVWKRTNAHSYANAMDVWGQGTLVTVSS
VL: B11 VL with V18A, N31S, Y33S, D51A, D52N, Q54N, S91T, G98A
notes: as for B1
B16: clone GX207 (scFv, V domains shown)
VH: EVQLVQSGAEVKKPGASVKVSCKASGYTFTSYGISWVRQAPGQGLEWMGWISAYNGNTNYAQKLQGRVTMTTDTSTSTAYMELRSLRSDDTAVYYCAREGIAAAGYYYGMDVWGQGTTVTVSS
VL: QSALTQPPSVSGSPGQSVTISCTGTSSDVGGYNRVSWYQQPPGTAPKLMIYEVSNRPSGVPDRFSGSKSGNTASLTISGLQAEDEADYYCSSYTSSTTYVFGTGTKVTVLG
notes: as for B1

How the values were obtained:
[1] = molecular target: T1, GPC3 on the surface of hepatic cancer cell lines (SK-Hep1-GPC3 transfectant, HepG2, Huh7, Hep3B, SNU398) (human, UniProt P51654 25-554); experiment: FACS, SK-Hep1-GPC3 cells, 1 ug antibody; lower right panel
T1 construct: Species is not restated for the cells (hepatic cancer cell lines, or SK-Hep1 transfected with pCMV/GPC3); also called glypican 3
Procedure: (§1) After detaching SK-Hep1-GPC3 cells by adding a TrypLE Express solution thereto, the detached SK-Hep1-GPC3 cells were put into a 50 mL tube and centrifuged at room temperature and 2000 rpm for 3 minutes to remove a culture medium, followed by washing with PBS once. The resultant was suspended using a FACS buffer, transferred to a round bottom tube, and centrifuged at room temperature and 2000 rpm for 3 minutes. A supernatant was removed, and the resultant was suitably dissolved using the FACS buffer so as to have a concentration of 4×10⁵ ea/mL. Then, a candidate antibody (1 μg) was added thereto at 4° C., and in an […] control group, a human IgG (1m, Sigma) was added instead of the candidate antibody. After 1 hour, the resultant was washed with the FACS buffer two times, a goat anti-human IgG antibody and FITC conjugated were added thereto at an amount of 1 μL per sample and bound thereto at 4° C. for 30 minutes. After collecting cells by centrifugation at 2000 rpm for 3 minutes, the cells were re-suspended by adding a fixation buffer (500 μL), and measured using a FACS calibur (FIG. 5).

[2] = molecular target: T1, GPC3 on the surface of hepatic cancer …; experiment: FACS, HepG2 cells, 1 ug antibody; lower right panel
[3] = molecular target: T1, GPC3 on the surface of hepatic cancer …; experiment: FACS, SK-Hep1-GPC3 #9 cells, 1 ug antibody; upper right panel
Procedure: as §1

[4] = molecular target: T1, GPC3 on the surface of hepatic cancer …; experiment: FACS, HepG2 cells, 1 ug antibody; upper right panel (Synthetic library)

Binder | Mean, FL2-H [1] | Mean, FL2-H [2] | Mean, FL2-H [3] | Mean, FL2-H [4]
B1 | 13.3 | 5.62 | – | –
B2 | 10.2 | 3.49 | – | –
B3 | 40.1 | 13.2 | – | –
B4 | 62.9 | 12.6 | – | –
B5 | 14.9 | 5.08 | – | –
B6 | – | – | 22.9 | 6.5
B7 | 13.7 | 6.12 | – | –
B8 | 5.95 | – | – | –
B9 | 13.3 | 5.71 | – | –
B10 | 37.8 | 9.81 | – | –
B11 | – | – | 12.3 | 8.12
B12 | – | – | 4.98 | 11
B13 | – | – | 4.89 | 8.85
B14 | – | – | 5.32 | 8.76
B15 | – | – | 3.94 | 11.3
B16 | 9.91 | 5 | – | –
